These results are taken from publication PMC12908443 (Nature metabolism, 2021).

For assay [1], the target named is T1, Recombinant 6 × His-tagged Acs2 (Acs2–His6) (budding yeast (S. cerevisiae), UniProt P52910 1-683).
T1 sequence (looked up): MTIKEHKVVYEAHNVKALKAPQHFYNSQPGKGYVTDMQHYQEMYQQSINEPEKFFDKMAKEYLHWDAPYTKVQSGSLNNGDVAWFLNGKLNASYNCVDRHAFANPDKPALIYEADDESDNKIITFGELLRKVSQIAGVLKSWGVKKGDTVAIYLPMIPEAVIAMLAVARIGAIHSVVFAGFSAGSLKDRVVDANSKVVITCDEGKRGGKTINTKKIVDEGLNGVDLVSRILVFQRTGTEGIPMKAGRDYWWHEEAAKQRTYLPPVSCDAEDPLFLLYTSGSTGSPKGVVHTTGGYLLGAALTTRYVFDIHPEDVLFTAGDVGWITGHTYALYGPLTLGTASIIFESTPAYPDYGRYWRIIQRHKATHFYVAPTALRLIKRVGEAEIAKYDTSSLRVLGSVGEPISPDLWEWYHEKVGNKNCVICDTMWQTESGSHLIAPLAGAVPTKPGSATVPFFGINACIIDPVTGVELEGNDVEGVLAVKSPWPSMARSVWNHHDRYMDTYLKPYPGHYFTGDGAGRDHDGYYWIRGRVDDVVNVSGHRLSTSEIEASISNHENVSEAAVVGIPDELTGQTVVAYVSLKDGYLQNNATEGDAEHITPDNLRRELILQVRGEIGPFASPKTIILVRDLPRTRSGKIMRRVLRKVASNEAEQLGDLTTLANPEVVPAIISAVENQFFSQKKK
Put plainly: pull-down.

For assay [2], the target named is T2, Glutathione S-transferase (GST)–Acs2 (budding yeast (S. cerevisiae), UniProt P52910 1-683).
T2 sequence (looked up): T1 sequence (looked up)
Put plainly: pull-down.

B1: Recombinant CL7-tagged Sas2 (Sas2–CL7) (enzyme, budding yeast (S. cerevisiae), UniProt P40963 1-338, looked up)
chain: MARSLSQSLTATTQKLKGKKNGGKGKNKPSAKIKKTQKEMLYGILNERNIRQIQFGLNKKFSTWYGSAVYFDPETKRLGCSETKGQLSSVSNSQYWLDTLFVCEYCFKYTDDQTRFVGHVASCPFQYRVPGKIKYKSPEYTIRRVKGSKYQLFCQCLCLFTKLYLDNKSMYFKVDHYEFYIVYETGSTKPMGFFSKDLVSYQQNNLACILIFPPYQRRGLGLLLIEFSYKLSQLEGVISGPEVPLSPFGLIGYLKYWSQILCWHLIEGDLAHYDKVTLEDLSIVTGMRVNDVILTLKHLNCIGENNQIYLQSLNSWLKLHGTKRNWFKLKDEYLLIDD
Take B1: the binding result in assay [1] is reported as “binds”.

B2: Purified recombinant Sas2 (Sas2–His6) (enzyme, budding yeast (S. cerevisiae), UniProt P40963 1-338, looked up)
chain: B1 chain
In the case of B2, the binding result in assay [2] is reported as “binds”.
